The target in the assay is Coxsackievirus and adenovirus receptor (CAR), endogenous on rat spinal cord motor neurons (rat (endogenous in spinal cord motor neurons)) (UniProt Q9R066).
Sequence of UniProt Q9R066 (Q9R066 20-365): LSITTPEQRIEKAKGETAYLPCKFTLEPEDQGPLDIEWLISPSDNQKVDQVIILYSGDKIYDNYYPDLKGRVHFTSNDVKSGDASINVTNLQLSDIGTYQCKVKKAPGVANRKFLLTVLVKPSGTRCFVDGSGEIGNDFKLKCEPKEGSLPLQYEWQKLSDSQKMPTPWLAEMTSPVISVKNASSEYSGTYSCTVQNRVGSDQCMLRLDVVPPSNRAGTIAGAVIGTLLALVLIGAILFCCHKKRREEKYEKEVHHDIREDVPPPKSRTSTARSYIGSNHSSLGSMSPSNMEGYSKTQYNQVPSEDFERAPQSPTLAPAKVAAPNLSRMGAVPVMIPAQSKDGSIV

For “CAV-2 fibre knob, unlabelled recombinant (FK) (domain or fragment)”, the CAV-2 virion uptake in MNs after pre-incubation with saturating concentrations of recombinant FK (blocks CAV-2 virion with CAR) amounted to 76%.

The values above are taken from PMC2677547.
